Experimental data reported in patent US20230192843A1 (TENEOBIO, published 2023).

Assays:
[1] = biological target: MSLN on HeLa cells (human) (UniProt Q13421); assay: flow cytometry dose curve on HeLa cells
[2] = biological target: T1, human MSLN expressed on CHO cells (human, UniProt Q13421 296-598); assay: flow cytometry dose curve on CHO cells expressing human MSLN
T1 construct: whole, on cells; also called CHO-huMSLN
Procedure: Cell-binding dose curves for example anti-MSLN single domain antibodies described herein were performed using CHO cells expressing human MSLN (FIG. 1A), HeLa cells (FIG. 1B), and CHO-OFFtgt cells (FIG. 1C). The single domain antibodies were tested at a starting concentration of 150 nM, followed by 3-fold serial dilutions for an 8-point dose curve. All washes and dilutions of cells, antibodies, and reagents were performed using flow buffer (1X phosphate buffered saline (PBS), 1% bovine serum albumin (BSA), and 0.1% NaN₃). Cells were pelleted and resuspended at 1 × 10⁶ cells/mL in flow buffer. Then, 50 µL cells were combined with 50 µL of test antibody and incubated 30 minutes at 4° C., followed by two wash steps with flow buffer. Cells were then resuspended in 50 µL PE-conjugated secondary diluted to 1.25 µg/mL (Southern Biotech #2042-09) and incubated for 20 minutes at 4° C. After two wash steps, cells were resuspended in flow buffer and analyzed using a BD Celesta system. PE mean fluorescence intensity was plotted as a fold over background (cells incubated with secondary detection antibody only).
To determine cell binding EC50 values for example anti-MSLN single domain antibodies of the present disclosure, cell binding dose curves were performed on HeLa cells and CHO cells expressing human MSLN. […]

[3] = biological target: T1, human MSLN expressed on CHO cells; assay: flow cytometry, antibody supernatant on CHO cells expressing human MSLN
Procedure: Pelleted CHO cells were resuspended in flow buffer (1X phosphate buffered saline (PBS), 1% bovine serum albumin (BSA), and 0.1% NaN₃) at 1.25 × 10⁶ cells/mL. Antibody containing supernatants were diluted 1:5 in flow buffer, and 40 µL cells plus 10 µL diluted antibody supernatant were incubated for 30 minutes at 4° C. Cells were washed with flow buffer and resuspended in 50 µL phycoerythrin (PE)-conjugated secondary antibody (Southern Biotech #2042-09) diluted in flow buffer to 1.25 µg/mL and incubated for 20 minutes at 4° C. After two wash steps, cells were resuspended in flow buffer and analyzed using a Guava easyCyte 8HT system. Table E1 summarizes the target binding activity of the anti-MSLN single domain antibodies as fold over background MFI signal.

[4] = biological target: T2, recombinant human MSLN (R&D Systems, #3265-MS) (human, UniProt Q13421 296-580, limits assumed); assay: BLI (Octet HTX), antibody on AHC sensor, antigen in solution, 1:1 model
T2 construct: Bought protein; also called antigen
Procedure: Table E3 summarizes affinity and epitope bin information for example anti-MSLN single domain antibodies of the present disclosure. The affinity of each single domain antibody to recombinant human MSLN (R&D Systems, #3265-MS) was measured by Bio-layer interferometry (BLI) using an Octet HTX. AHC (Anti-hIgG Fc Capture) sensors were used to immobilize test antibody at 5 µg/mL. After baseline readings, sensors were dipped into antigen solutions (starting at 500 nM followed by a 7-point, 2-fold dilution series). Association and dissociation were measured for 180 and 240 seconds respectively. Data were analyzed with Octet Data Analysis v11.0 HT (ForteBio) using a standard 1:1 binding model. Epitope bins for the single domain antibodies were determined by an in-tandem competition BLI binding experiment using an Octet HTX. The antigen (5 µg/mL) was loaded on the sensor Ni-NTA sensor followed by a baseline in kinetic buffer. The antigen coated sensor was then dipped into a saturating concentration Antibody 1. A second baseline was now set for 300 sec. Then the antigen-antibody 1 complex was dipped into Antibody 2 solution for 180 sec and then allowed to dissociate.

T2 sequence (Q13421 other isoform, or with tags, fused parts or gaps limits assumed): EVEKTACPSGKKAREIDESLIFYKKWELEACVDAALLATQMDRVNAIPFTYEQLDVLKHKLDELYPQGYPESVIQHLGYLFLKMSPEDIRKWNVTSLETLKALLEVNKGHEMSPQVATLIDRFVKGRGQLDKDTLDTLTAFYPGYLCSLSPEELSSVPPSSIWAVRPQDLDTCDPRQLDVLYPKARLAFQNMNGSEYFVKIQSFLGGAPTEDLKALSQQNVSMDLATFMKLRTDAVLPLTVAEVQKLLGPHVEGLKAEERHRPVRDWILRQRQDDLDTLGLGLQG
T1 sequence (Q13421 other isoform, or with tags, fused parts or gaps limits assumed): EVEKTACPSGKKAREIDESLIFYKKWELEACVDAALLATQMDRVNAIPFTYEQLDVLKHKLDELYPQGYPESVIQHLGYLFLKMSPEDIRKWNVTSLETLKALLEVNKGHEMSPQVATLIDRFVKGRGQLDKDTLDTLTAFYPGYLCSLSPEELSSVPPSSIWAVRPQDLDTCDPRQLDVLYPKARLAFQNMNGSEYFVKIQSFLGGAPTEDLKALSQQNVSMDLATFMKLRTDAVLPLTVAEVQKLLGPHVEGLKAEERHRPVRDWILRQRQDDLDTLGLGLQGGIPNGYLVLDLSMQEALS

| Binder | EC50 [1] [nM] | EC50 [2] [nM] | fold over background MFI signal [3] [fold over background] | Kd [4] [nM] |
| --- | --- | --- | --- | --- |
| anti-MSLN single domain antibody clone 394556 (VHH, Human VH single domain antibody; It was captured on anti-hIgG Fc (AHC) sensors, so it apparently carried a human Fc) VHH: QLQLQESGPGLVKPSETLSLTCTVSGGSISNSYYWGWIRQPPGKGLEWIGSIYHSGNTYYNPSLKSRVTISVDTSKNQFSLKLSSVTAADTAVYYCVTQDGVGATTTEEYWGQGTLVTVSS | 2.5 | 2.9 | 540 | 90.4 |
| anti-MSLN single domain antibody clone 392026 (VHH) VHH: QLQLQESGPGLVKPSETLSLTCTVSGGSISNSYYWGWIRQPPGKGLEWIGSIYHSGNTYYNPSLKSRVTISVDTSKNQFSLKLSSVTAADTAVYYCTSQDGVGATTTEEYWGQGTLVTVSS | 9.8 | – | – | – |
| anti-MSLN single domain antibody clone 394573 (VHH, Human VH single domain antibody; Tested as antibody-containing supernatant) VHH: QLQLQESGPGLVKPSETLSLTCTVSGGSISNSYYWGWIRQPPGKGLEWIGSIYHSGNTYYNPSLKSRVTISVDTSKNQFSLKLSSVTAADTAVYYCATQNGVGATTTEEYWGQGTLVTVSS | – | – | 194 | – |
| anti-MSLN single domain antibody clone 394582 (VHH, Human VH single domain antibody; It was captured on anti-hIgG Fc sensors) VHH: QLQLQESGPGLVKPSETLSLTCTVSGGSISNSYYWGWIRQPPGKGLEWIGSIYHSGNTYYNPSLKSRVTISVDTSKNQFSLKLSSVTAADTAVYYCTTQNGVGATTTEEYWGQGTLVTVSS | 1.3 | 2.2 | 367 | 220 |
| anti-MSLN single domain antibody clone 394567 (VHH, Human VH single domain antibody; Tested as antibody-containing supernatant) VHH: QLQLQESGPGLVKPSETLSLTCTVSGGSISNSYYWGWIRQPPGKGLEWIGSIYYSGSIHYNPSLKSRVTISVDTSKNQFSLKLSSVTAADTAVYYCTSQDGVGATTTEEYWGQGTLVTVSS | – | – | 16.9 | – |
| anti-MSLN single domain antibody clone 394541 (VHH, Human VH single domain antibody; It was captured on anti-hIgG Fc sensors) VHH: QLQLQESGPGLVKPSETLSLTCTVSGGSISNSYYWGWIRQPPGKGLEWIGSIYHSGNTYYNPSLKSRVTMSVDTSKNQFSLKLSSVTAADTAVYYCTSQDGVGATTTEEYWGQGTLVTVSS | – | – | 422 | 3800 |

Continued, values first:

| EC50 [1] [nM] | EC50 [2] [nM] | fold over background MFI signal [3] [fold over background] | Kd [4] [nM] | Binder |
| --- | --- | --- | --- | --- |
| – | – | 87.3 | – | anti-MSLN single domain antibody clone 394606 (VHH, Human VH single domain antibody; Tested as antibody-containing supernatant) VHH: QLQLQESGPGLVKPSETLSLTCTVSGGSISSSYYWGWIRQPPGKGLEWIGSIYHSGNTYYNPSLKSRVTISVDTSKNQFSLKLSSVTAADTAVYYCATQNGVGATTTEEYWGQGTLVTVSS |
| – | – | 78 | – | anti-MSLN single domain antibody clone 394610 (VHH, Human VH single domain antibody; Tested as antibody-containing supernatant) VHH: QLQLQESGPGLVKPSETLSLTCTVSGGSISSSYYWGWIRQPPGKGLEWIGSIYHSGNTYYNPSLKSRVTISVDTSKNQFSLKLSSVTAADTAVYYCTSQDGVGATTTEEYWGQGTLVTVSS |
| – | – | 141 | – | anti-MSLN single domain antibody clone 394607 (VHH, Human VH single domain antibody; Tested as antibody-containing supernatant) VHH: QLQLQESGPGLVKPSETLSLTCTVSGGSISNSYYWGWIRQPPGKGLEWIGSIYYSGSTYYNPSLKSRVTISVDTSKNQFSLSLNSVTAADTAVYYCATQDGVGATTTEEYWGQGTLVTVSS |
